# According to the RNAGym collection of RNA variant scans (doi:10.7554/elife.90254):
# B1: LINE1-full (parent)
# chain: UACGUAGGUGGUUUUCCCCUGAUAGUGCUAAGGGGGCCUGGAAGUUUGGACUGGGCAGAGCUCAACACAGCGUGGCAAAGUGGCUGUGGCUAGACUGCCUCUCUGGAUUCCUCGUCACUCAGCAGGGCAUCUCUGAGAGAAAUGCC
# Variants of: B1
# Test: self-cleavage, relative activity (ratio to wild type); higher = more cleavage; in vitro, sequencing; the parent is a self-cleaving ribozyme
row,Variant,self-cleavage
1,A43U A50G,1.29
2,G44A,1.21
3,G41A U62C,0.08
4,A43G A65U,0.15
5,A43G A65G,0.09
6,A43G A65C,0
7,A43G U119A,1.15
8,A42G A117G,1.71
9,A42G A59G,0.11
10,A42G A69U,0.04
11,A42G A69C,0.06
12,A43G U104A,0.42
13,A43G U102C,1.13
14,A43G U102A,0.91
15,A43G U102G,0.84
16,A43U U46C,1.23
17,A43U U46G,1.37
18,A42G C66U,0.01
19,A43U U119C,1.17
20,A43G U73G,1.56
21,A43G A78C,1.74

row,Variant,self-cleavage
1,A43G G93U,0.05
2,G44A C113U,1.8
3,A42U A78G,0.88
4,A43G A121U,1.23
5,A43G A121G,1.12
6,A42G G82A,1.95
7,A42G A129G,1.68
8,G41C U132A,1.35
9,G41A U112C,1.67
10,G41U U100C,1.28
11,A43U,1.26
12,A43G,1.21
13,A43C,1.35
14,A43G G83A,1.03
15,A43U U132C,1.26
16,A43C U100C,1.99
17,A42G U73C,1.5
18,A42U A92G,0.09
19,A42G G93U,0.05
20,A42G G93A,0.01
21,A43U A77G,2.1

row,Variant,self-cleavage
1,G40U U85C,0.13
2,A43U U134A,1.13
3,G41A U85A,0
4,G41A U85G,0.09
5,G41A U85C,0.05
6,A43G A67C,0.05
7,A43G A67G,0.46
8,A43U G53C,1.03
9,A42U U134C,1.34
10,A42U U134A,1.09
11,A42G G54C,0.84
12,A42G G54U,1.06
13,G41U U62A,0.04
14,G41U U62C,0.04
15,G41A A124U,1.08
16,A42G C71G,0.35
17,A43G U130C,1.2
18,A43G U130A,1.51
19,A43G U91A,0.89
20,A42G G88A,0.09
21,A42G G74A,0.8

row,Variant,self-cleavage
1,A43G U143A,1.24
2,A42G U62C,0.08
3,A42C A43G,1.13
4,A42C A43U,0.72
5,A42G G144A,1.17
6,G40U A78G,0.81
7,A43G A138U,1.31
8,A43U C98G,0.06
9,A42G U46A,1.11
10,A42G U46G,1.02
11,A42C A59G,0.45
12,A43C A79G,0.75
13,A43G C71U,0.15
14,A42G U112C,1.54
15,G44A A138G,1.55
16,A43C A65U,0.14
17,G41U U143C,1.47
18,A43C U45G,0.66
19,A43C U45C,0.51
20,A42C U134A,0.83
21,G41A U119C,1.15
